Test results taken from US20240400689A1 (ANTENGENE BIOLOGICS, published 2024).
Blank lines part the entries; values can stand above or below the binder they belong to.

Experiments:
human CD276 protein [1] = molecular target: T1, human CD276 protein (human, UniProt Q5ZPR3 29-534); experiment: FACS titration on SKOV3 cells (MFI against Conc. (nM)); unit taken from the concentration axis
T1 construct: whole, on cells; for SKOV3 and the other cancer lines the protein is the cells' own; also called B7-H3; B7H3
T1 sequence (looked up): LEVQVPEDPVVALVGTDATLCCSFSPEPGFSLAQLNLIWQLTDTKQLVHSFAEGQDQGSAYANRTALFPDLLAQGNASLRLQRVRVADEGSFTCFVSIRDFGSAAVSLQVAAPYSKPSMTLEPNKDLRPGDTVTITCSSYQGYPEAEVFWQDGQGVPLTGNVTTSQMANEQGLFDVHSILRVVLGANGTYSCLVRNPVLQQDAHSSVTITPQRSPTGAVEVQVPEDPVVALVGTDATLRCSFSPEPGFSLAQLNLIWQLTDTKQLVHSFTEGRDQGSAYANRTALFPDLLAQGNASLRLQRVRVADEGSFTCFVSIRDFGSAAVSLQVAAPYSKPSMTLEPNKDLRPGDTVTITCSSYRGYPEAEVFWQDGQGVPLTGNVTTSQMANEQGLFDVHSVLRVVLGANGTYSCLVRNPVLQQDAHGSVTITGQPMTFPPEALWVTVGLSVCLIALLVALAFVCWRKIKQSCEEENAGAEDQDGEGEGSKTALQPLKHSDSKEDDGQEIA

[2] = molecular target: T2, HUMAN B7H3 (Biacore analyte) (human, UniProt Q5ZPR3 29-461, limits assumed); experiment: SPR, Biacore 8K, antibody captured, B7H3 as analyte, 1:1 binding
T2 construct: also called hB7H3
T2 sequence (looked up): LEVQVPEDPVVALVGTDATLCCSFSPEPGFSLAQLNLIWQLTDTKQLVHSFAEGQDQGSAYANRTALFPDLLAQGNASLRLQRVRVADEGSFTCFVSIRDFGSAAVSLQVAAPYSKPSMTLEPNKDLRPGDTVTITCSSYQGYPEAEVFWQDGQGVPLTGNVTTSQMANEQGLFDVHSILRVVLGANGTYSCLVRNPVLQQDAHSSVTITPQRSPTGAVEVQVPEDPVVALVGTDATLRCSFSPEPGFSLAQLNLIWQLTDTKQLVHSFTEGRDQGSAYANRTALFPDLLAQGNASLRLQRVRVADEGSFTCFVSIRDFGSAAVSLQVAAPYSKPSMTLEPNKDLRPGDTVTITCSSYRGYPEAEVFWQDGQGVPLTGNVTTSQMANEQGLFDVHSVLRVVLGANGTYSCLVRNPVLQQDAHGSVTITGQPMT

human CD276 protein [3] = molecular target: T1, human CD276 protein; experiment: cell-based or functional assay
human CD276 protein [4] = molecular target: T1, human CD276 protein; experiment: cell-based or functional assay; remark: listed apart in the source
human CD276 protein [5] = molecular target: T1, human CD276 protein; experiment: FACS on SKOV3 cells
Procedure, shortened: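 Human IgG1 chimeric antibodies were tested for binding to trypsin-detached SKOV3 ovarian cancer cells by flow cytometry, with cells washed in FACS buffer and kept in the dark before acquisition. Titration read-out was MFI plotted against antibody concentration (nM).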

human CD276 protein [6] = molecular target: T1, human CD276 protein; experiment: cell-based or functional assay; remark: listed apart in the source

B1: hVH1-hVL5-30 (antibody, V domains shown)
VH: QVQLQESGPGLVKPSQTLSLTCTVSGYSITSDYAWNWIRQHPGKGLEWIGYISHSGSTSYNPSLKSRVTISRDTSKNQFSLKLSSVTAADTAVYYCARSLGRRWYFDVWGQGTTVTVSS
VL: DIVMTQSPLSLPVTPGEPASISCKSSQSLLNSSTQKNYLAWYLQKPGQSPQLLIYFASTRDSGVPDRFSGSGSGTDFTLKISRVEAEDLGVYFCQQHYIIPFTFGQGTKLEIK
EC50 (human CD276 protein [1]): 11.3 nM

B2: hVH2-hVL1-30 (antibody, V domains shown)
VH: QVQLQESGPGLVKPSETLSLTCTVSGYSITSDYAWNWIRQPPGKGLEWIGYISHSGSTSYNPSLKSRVTISRDTSKNQFSLKLSSVTAADTAVYYCARSLGRRWYFDVWGQGTTVTVSS
VL: DIQMTQSPSSLSASVGDRVTITCKSSQSLLNSSTQKNYLAWYQQKPGKAPKLLIYFASTRDSGVPSRFSGSGSGTDFTLTISSLQPEDLATYFCQQHYIIPFTFGQGTKLEIK
EC50 (human CD276 protein [1]): 9.51 nM

B3: hVH3-hVL2-30 (antibody, V domains shown)
VH: QVQLQESGPGLVKPSETLSLTCTVSGYSITSDYAWNWIRQPPGKGLEWIGYISHSGSTSYNPSLKSRVTISRDTSKNQFSLKLSSVTAADTAVYYCARSLGRRWYFDVWGQGTTVTVSS
VL: DIVMTQSPDSLAVSLGERATINCKSSQSLLNSSTQKNYLAWYQQKPGQPPKLLIYFASTRDSGVPDRFSGSGSGTDFTLTISSLQAEDLAVYFCQQHYIIPFTFGQGTKLEIK
EC50 (human CD276 protein [1]): 5.93 nM

B4: hVH3-hVL5-30 (antibody, V domains shown)
VH: QVQLQESGPGLVKPSETLSLTCTVSGYSITSDYAWNWIRQPPGKGLEWIGYISHSGSTSYNPSLKSRVTISRDTSKNQFSLKLSSVTAADTAVYYCARSLGRRWYFDVWGQGTTVTVSS
VL: DIVMTQSPLSLPVTPGEPASISCKSSQSLLNSSTQKNYLAWYLQKPGQSPQLLIYFASTRDSGVPDRFSGSGSGTDFTLKISRVEAEDLGVYFCQQHYIIPFTFGQGTKLEIK
EC50 (human CD276 protein [1]): 6.37 nM

More lines, main results first:

EC50 (human CD276 protein [1]): 8.52 nM
B5: hVH4-hVL5-30 (antibody, V domains shown)
VH: QVQLQESGPGLVKPSQTLSLTCAVYGYSITSDYAWNWIRQPPGKGLEWIGYISHSGSTSYNPSLKSRVTISRDTSKNQFSLKLSSVTAADTAVYYCARSLGRRWYFDVWGQGTTVTVSS
VL: DIVMTQSPLSLPVTPGEPASISCKSSQSLLNSSTQKNYLAWYLQKPGQSPQLLIYFASTRDSGVPDRFSGSGSGTDFTLKISRVEAEDLGVYFCQQHYIIPFTFGQGTKLEIK

EC50 (human CD276 protein [1]): 9.77 nM
B6: hVH4-hVL2-30 (antibody, V domains shown)
VH: QVQLQESGPGLVKPSQTLSLTCAVYGYSITSDYAWNWIRQPPGKGLEWIGYISHSGSTSYNPSLKSRVTISRDTSKNQFSLKLSSVTAADTAVYYCARSLGRRWYFDVWGQGTTVTVSS
VL: DIVMTQSPDSLAVSLGERATINCKSSQSLLNSSTQKNYLAWYQQKPGQPPKLLIYFASTRDSGVPDRFSGSGSGTDFTLTISSLQAEDLAVYFCQQHYIIPFTFGQGTKLEIK

Kd [2]: 0.645 nM
koff [2]: 0.000243 s⁻¹
kon [2]: 377000 M⁻¹ s⁻¹
EC50 of antibody induced CDC effect (human CD276 protein [3]): 1.28 nM
EC50 of antibody induced ADCC effect on SKOV3 (human CD276 protein [4]): 0.00664 µg/mL
EC50 (human CD276 protein [5]): 0.186 µg/mL
MFI (Max) (human CD276 protein [5]): 5350
B7: 16-C6-F7-F5 (human IgG1 chimeric antibody) (antibody, V domains shown)
VH: QIQLVQSGPEVKKPGETVKISCKASGYTFTKYGINWVKQAPGEGLKWMGWIWTYTGKPTYGDDFKGRFAFSLETSASTAYLQISDLKIEDMATYFCARDDGYYYTMNYWGQGTSVTVSS
VL: DIVMTQTPLSLPVSLGDQASISCRSSQSLLHTNGDTYLHWYLQKAGQPPKLLIYKVSNRFSGVPDRFSGSGSGTDFTLKISRVEAEDLGVYFCSQSTHIPWTFGGGTKLEIK
notes: human IgG1 chimeric antibody of the mouse clone
Top cytotoxicity (%), CDC (human CD276 protein [3]): 92.1%
IC50 of indirect ADC cytotoxicity on SKOV3 (human CD276 protein [6]): 0.009 nM

EC50 (human CD276 protein [1]): 9.64 nM
B8: mVH-mVL1-30 (antibody, V domains shown)
VH: EVQLVESGPGLVKPSQSLSLTCTVTGYSITSDYAWNWIRQFPGNKLEWMGYISHSGSTSYNPSLKSRISITRDTSKNQFFLQLNSVTTEDTATYYCARSLGRRWYFDVWGAGTTVTVSS
VL: DIVMTQSPSSLAMSVGQKVTLSCKSSQSLLQSSTQKNYLAWYQQKPGQSPKLLVYFASTRDSGVPDRFIGSGSGTEFTLTISSVQAEDLADYFCQQHYIIPFTFGAGTKLEIK
